Experimental data published in patent publication US8008542B2, “Compositions, cells, and plants that include BKI1, a negative regulator of BRI1-mediated BR signaling” (The Salk Institute for Biological Studies, priority 2007, dated 2011).

Assays:
endogenous BRI1 = biological target: T1, endogenous BRI1 (Arabidopsis thaliana, UniProt O22476); assay: Immunoprecipitation from BKI1-FLAG plants; format: binding; settings: immunoprecipitation with anti-FLAG
T1 construct: from tissue; host or cells: short-day grown seedlings of Col-0 transgenic plants expressing BKI1-FLAG
T1 sequence (O22476 24-1196): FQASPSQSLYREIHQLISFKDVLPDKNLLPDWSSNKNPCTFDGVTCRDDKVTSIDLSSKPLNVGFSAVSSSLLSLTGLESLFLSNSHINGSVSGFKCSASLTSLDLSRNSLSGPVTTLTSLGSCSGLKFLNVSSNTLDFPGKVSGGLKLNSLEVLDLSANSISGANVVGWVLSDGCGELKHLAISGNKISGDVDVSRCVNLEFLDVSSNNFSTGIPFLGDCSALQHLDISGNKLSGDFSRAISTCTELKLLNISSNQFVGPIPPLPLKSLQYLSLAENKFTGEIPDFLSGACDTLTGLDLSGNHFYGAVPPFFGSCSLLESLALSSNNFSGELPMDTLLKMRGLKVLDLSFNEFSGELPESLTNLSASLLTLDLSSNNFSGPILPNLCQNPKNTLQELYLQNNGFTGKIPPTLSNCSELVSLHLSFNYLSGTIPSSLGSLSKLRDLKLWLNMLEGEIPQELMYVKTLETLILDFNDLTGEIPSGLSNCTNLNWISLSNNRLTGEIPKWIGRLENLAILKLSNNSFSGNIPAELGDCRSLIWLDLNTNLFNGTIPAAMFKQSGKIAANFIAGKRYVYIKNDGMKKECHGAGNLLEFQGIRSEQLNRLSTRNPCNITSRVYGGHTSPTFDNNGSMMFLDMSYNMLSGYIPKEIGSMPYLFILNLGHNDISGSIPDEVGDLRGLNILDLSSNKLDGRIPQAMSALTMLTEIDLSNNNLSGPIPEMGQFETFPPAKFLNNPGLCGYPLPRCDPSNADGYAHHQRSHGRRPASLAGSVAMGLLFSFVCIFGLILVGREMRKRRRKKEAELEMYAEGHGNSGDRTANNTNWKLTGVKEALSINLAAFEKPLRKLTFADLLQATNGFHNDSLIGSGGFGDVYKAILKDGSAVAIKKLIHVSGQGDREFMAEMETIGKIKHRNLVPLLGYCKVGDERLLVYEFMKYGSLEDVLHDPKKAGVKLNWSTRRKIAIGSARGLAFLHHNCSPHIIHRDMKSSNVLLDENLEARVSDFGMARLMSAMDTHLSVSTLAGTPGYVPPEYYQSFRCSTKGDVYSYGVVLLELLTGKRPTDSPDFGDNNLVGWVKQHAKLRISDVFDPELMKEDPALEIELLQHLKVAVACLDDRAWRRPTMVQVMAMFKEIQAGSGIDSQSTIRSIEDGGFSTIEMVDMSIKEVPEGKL
Method: Short-day grown seedlings of Col-0 and transgenic plants containing BKI1-FLAG were ground to a fine powder in liquid nitrogen, and solubilized with 2× extraction buffer (100 mM Tris-HCl pH 7.5, 300 mM NaCl, 2 mM EDTA, 1% Triton, 10% glycerol, and protease inhibitor). The extracts were centrifuged at 5,000×g for 10 min, and the resultant supernatant was then spun at 100,000×g for 90 min at 4° C. to remove membrane fractions. The supernatant was incubated with pre-washed anti-FLAG M2 agarose gel (Sigma) for three hours at 4° C., and the agarose gel was washed five times with TBS Buffer containing 0.02% Tween 20. The immunoprecipitates were eluted with 1×SDS sample buffer by boiling for 5 min, separated on a 4-20% Novex Tris-Glycine SDS-PAGE gel (Invitrogen), transferred to PVDF membrane (Millipore), and detected with either anti-BRI1 antibody for endogenous BRI1 or monoclonal anti-FLAG M2 (Sigma) for BKI1-FLAG. Signals were visualized using the Odyssey Infrared Imaging system (LI-COR Biosciences Inc.).

[1] = biological target: T2, interaction between the kinase domains of BRI1 and BAK1 (Arabidopsis thaliana, UniProt O22476); assay: GST pull-down of 35S-BRI1-KD-HIS by GST-BAK1-KD in vitro; format: binding; settings: 10 μM of MBP-BKI1, five replicates, p=0.000013
T2 construct: His (C); made in house; host or cells: BRI1-KD-HIS: TNT T7 coupled reticulocyte lysate (Promega)
T2 sequence (O22476 883-1158 limits assumed): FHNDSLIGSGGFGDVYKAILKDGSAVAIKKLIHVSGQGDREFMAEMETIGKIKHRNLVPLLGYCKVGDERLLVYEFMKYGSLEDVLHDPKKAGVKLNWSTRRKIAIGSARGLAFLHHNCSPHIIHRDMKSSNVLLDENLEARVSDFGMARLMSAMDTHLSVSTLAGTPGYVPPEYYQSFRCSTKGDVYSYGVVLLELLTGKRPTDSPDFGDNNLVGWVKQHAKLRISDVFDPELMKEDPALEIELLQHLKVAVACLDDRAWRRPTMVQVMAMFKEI
Method: Seedlings were grown on MS medium containing 1 μM of BRZ220. The time of BL treatment is indicated. Top panels: BKI1-YFP; Lower panels: myriBKI1-YFP. […] Immunoblots with anti-GFP show levels of myriBKI1-YFP and BKI1-YFP. Bottom band: loading control. […] The total ^35S-Met labeled BRI1-KD-HIS co-precipitated by GST-BAK1-KD was defined as “1”. Five replicates were conducted. Error bars indicate standard error. 1, GST-BAK1-KD±35S-BRI1-KD-HIS; 2, GST-BAK1-KD+35S-BRI1-KD-HIS+10 μM of MBP; 3, GST-BAK1-KD+35S-BRI1-KD-HIS+10 μM of MBP-BKI1. […] Without BL, BRI1 kinase is kept in a basal state by both its own carboxyl terminal domain and by an interaction with BKI1. Brassinosteroid binding to the extracellular domain of BRI1 induces a conformational change of the kinase domain, leading to the phosphorylation of the C-terminal domain of BRI1 and BKI1, the dissociation of BKI1 from the plasma membrane, and the release of autoinhibition of BRI1. These events lead to the full activation of BRI1 and its association with BAK1 or other substrates. Plasma membrane-dissociated BKI1 may also regulate other unknown components in the brassinosteroid signaling cascade. BSU1 is a nuclear serine/threonine phosphatase involved in the dephosphorylation of BES1 (27). […]

Row | interaction with endogenous BRI1 in vivo (endogenous BRI1) | inhibition of the interaction between the kinase domains of BRI1 and BAK1 [1] | Molecule
1 | interacted | – | BKI1-FLAG: BKI1 with three copies of FLAG fused at the C-terminal end (protein) METNLQQVKNSSQTFSEKQNPKQEASPSPISSTCSSPSHDFSFTISLQPLSSSSKHISPTLRSPSKTTSSYQQTDPFAVDLSPADEIFFHGHLLPLHLLSHLPVSPRTSTGSYNDGFTLPVKDILPDQPTNNNNNTENAITNISTEAKDDNTEDKAEGEIRVKTKPIKSFSLFGLSKWRKGFESNEREQEQQQQKIKKPMSLDLSHAVKKYIRMLFQKRGNGTQFWNRRQTSSYSFSSSLMGPNGNSKTMINGSYNKRDLIRGRRGELFSAPASMRTSPTNSGHLRVSTAGLSSSSGSTSSSSSDSTMEELQAAIQAAIAHCKNSSAVDRDDKVKDSDYKDDDDKVKLDYKDDDDKVKLDYKDDDDKVKL
2 | – | approximately 62% | MBP-BKI1: BKI1-maltose binding protein fusion (N-terminal MBP) (protein, left off: large carriers) METNLQQVKNSSQTFSEKQNPKQEASPSPISSTCSSPSHDFSFTISLQPLSSSSKHISPTLRSPSKTTSSYQQTDPFAVDLSPADEIFFHGHLLPLHLLSHLPVSPRTSTGSYNDGFTLPVKDILPDQPTNNNNNTENAITNISTEAKDDNTEDKAEGEIRVKTKPIKSFSLFGLSKWRKGFESNEREQEQQQQKIKKPMSLDLSHAVKKYIRMLFQKRGNGTQFWNRRQTSSYSFSSSLMGPNGNSKTMINGSYNKRDLIRGRRGELFSAPASMRTSPTNSGHLRVSTAGLSSSSGSTSSSSSDSTMEELQAAIQAAIAHCKNSSAVDRDDKVKDS
